Data on 9 molecules can be found in article PMC7854603, “Nucleic acid binding by SAMHD1 contributes to the antiretroviral activity and is enhanced by the GpsN modification”.

Data set [1] addresses T1, SAMHD1 HD domain WT (UniProt Q9Y3Z3 114-626). In words: fluorescence anisotropy; FA: 50 mM Tris pH 8, 100 mM NaCl, 5 mM MgCl2, 1 mM TCEP, 50 nM 6FAM-oligo (salt series with KCl 50-150 mM); SEC same buffer; NMR: 50 mM Tris pH 7.5, 150 mM NaCl, 5 mM MgCl2, 10% D2O; temperature not stated. To be noted: protein: recombinant; chain copies: 2; label: 5'-6FAM; single strand. (Polarisation of emitted light reports the rotation of a fluorescent probe.)

Data set [2] concerns the target T1, SAMHD1 HD domain WT. Nature of the data set: X-ray crystallography; FA: 50 mM Tris pH 8, 100 mM NaCl, 5 mM MgCl2, 1 mM TCEP, 50 nM 6FAM-oligo (salt series with KCl 50-150 mM); SEC same buffer; NMR: 50 mM Tris pH 7.5, 150 mM NaCl, 5 mM MgCl2, 10% D2O; temperature not stated. The settings on record: protein: recombinant; chain copies: 2; single strand.
The target in data set [3] is T1, SAMHD1 HD domain WT. Nature of the data set: fluorescence anisotropy; FA: 50 mM Tris pH 8, 100 mM NaCl, 5 mM MgCl2, 1 mM TCEP, 50 nM 6FAM-oligo (salt series with KCl 50-150 mM); SEC same buffer; NMR: 50 mM Tris pH 7.5, 150 mM NaCl, 5 mM MgCl2, 10% D2O; temperature not stated. To be noted: protein: recombinant; chain copies: 2; label: 5'-6FAM; single strand. The source holds these as a separate data set.

In data set [4] the target is T1, SAMHD1 HD domain WT. Nature of the data set: fluorescence anisotropy; tolerant to increasing salt (from 50 mM KCl); FA: 50 mM Tris pH 8, 100 mM NaCl, 5 mM MgCl2, 1 mM TCEP, 50 nM 6FAM-oligo (salt series with KCl 50-150 mM); SEC same buffer; NMR: 50 mM Tris pH 7.5, 150 mM NaCl, 5 mM MgCl2, 10% D2O; temperature not stated. To be noted: protein: recombinant; chain copies: 2; label: 5'-6FAM; single strand.

Data set [5] concerns the target T1, SAMHD1 HD domain WT. In words: fluorescence anisotropy; no significant difference from d(TG*TTCA); FA: 50 mM Tris pH 8, 100 mM NaCl, 5 mM MgCl2, 1 mM TCEP, 50 nM 6FAM-oligo (salt series with KCl 50-150 mM); SEC same buffer; NMR: 50 mM Tris pH 7.5, 150 mM NaCl, 5 mM MgCl2, 10% D2O; temperature not stated. To be noted: protein: recombinant; chain copies: 2; label: 5'-6FAM; single strand.

For data set [6], the target named is SAMHD1 R352A (UniProt Q9Y3Z3 114-626, R352A). In words: size-exclusion chromatography; 50 uM GTP + 50 uM dTTP; 2-fold higher stoichiometry than D311A; FA: 50 mM Tris pH 8, 100 mM NaCl, 5 mM MgCl2, 1 mM TCEP, 50 nM 6FAM-oligo (salt series with KCl 50-150 mM); SEC same buffer; NMR: 50 mM Tris pH 7.5, 150 mM NaCl, 5 mM MgCl2, 10% D2O; temperature not stated. The settings on record: protein: recombinant; chain copies: 2; label: 5'-6FAM; single strand. In general terms: SEC sorts molecules by how far they enter the pores of the column.
Chain of SAMHD1 R352A (Q9Y3Z3 114-626 R352A): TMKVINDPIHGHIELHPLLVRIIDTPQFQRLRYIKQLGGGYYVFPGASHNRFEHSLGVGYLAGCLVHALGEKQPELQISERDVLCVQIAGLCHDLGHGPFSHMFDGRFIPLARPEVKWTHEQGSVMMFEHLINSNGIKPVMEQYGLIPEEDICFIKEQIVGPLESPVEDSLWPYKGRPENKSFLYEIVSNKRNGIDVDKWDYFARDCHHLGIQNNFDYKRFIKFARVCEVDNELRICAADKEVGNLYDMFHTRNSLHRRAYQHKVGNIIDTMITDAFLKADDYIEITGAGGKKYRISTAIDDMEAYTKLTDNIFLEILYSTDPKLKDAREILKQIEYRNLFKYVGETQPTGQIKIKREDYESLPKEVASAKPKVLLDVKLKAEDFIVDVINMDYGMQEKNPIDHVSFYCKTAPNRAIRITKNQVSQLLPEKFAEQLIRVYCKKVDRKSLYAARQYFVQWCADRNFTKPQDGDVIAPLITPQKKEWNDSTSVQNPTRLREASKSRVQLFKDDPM

In data set [7] the target is SAMHD1 K523A (UniProt Q9Y3Z3 114-626, K523A). The description is as above. To be noted: protein: recombinant; chain copies: 2; label: 5'-6FAM; single strand.
Chain of SAMHD1 K523A (Q9Y3Z3 114-626 K523A): as the sequence (Q9Y3Z3 114-626 R352A) above, with A239R, K410A counted along it
The target in data set [8] is SAMHD1 D311A (UniProt Q9Y3Z3 114-626, D311A). Nature of the data set: analytical ultracentrifugation; no nucleotides; dimer, S ~6; FA: 50 mM Tris pH 8, 100 mM NaCl, 5 mM MgCl2, 1 mM TCEP, 50 nM 6FAM-oligo (salt series with KCl 50-150 mM); SEC same buffer; NMR: 50 mM Tris pH 7.5, 150 mM NaCl, 5 mM MgCl2, 10% D2O; temperature not stated. To be noted: protein: recombinant; chain copies: 2; label: 5'-6FAM; single strand.
Chain of SAMHD1 D311A (Q9Y3Z3 114-626 D311A): as the sequence (Q9Y3Z3 114-626 R352A) above, with D198A, A239R counted along it

T1 sequence (Q9Y3Z3 114-626): as the sequence (Q9Y3Z3 114-626 R352A) above, with A239R counted along it

CTCCT (ssDNA, phosphorothioate?) [6FAM oligo with G replaced by T]: in data set [1], the binding result is “no binding”. With CGCCU (ssRNA) [r(CGCCU)], in data set [2], the binding result is “binds”. In the case of TGTTCA (ssDNA, phosphorothioate after G2, pure Sp) [6FAM-d(TG*TTCA) Sp], in data set [3], the binding signal is ~0.1 affinity relative to Rp. For CGCCU (ssRNA, phosphorothioate at linkages 1-4, mixed Rp/Sp) [6FAM-r(C*G*C*C*U)], the binding result in data set [4] is recorded as “binds”. On to UGUUCA (ssRNA, phosphorothioate after G2, mixed Rp/Sp) [6FAM-r(UG*UUCA)], for which the binding result in data set [5] is on record as “binds”. In the case of TGTTCA (ssDNA, phosphorothioate after G2, pure Rp) [6FAM-d(TG*TTCA) Rp], the binding signal in data set [3] is ~10 fold higher affinity than Sp. As for CACCT (ssDNA, phosphorothioate?) [6FAM oligo with G replaced by A], the binding result in data set [1] is listed as “no binding”.

As to CGCCT (ssDNA, phosphorothioate at linkages 1-4, mixed Rp/Sp) [6FAM-d(C*G*C*C*T)], the binding result in data set [6], in data set [7], in data set [8] and in data set [4] was “binds” in each case. Consider CGCCT (ssDNA, phosphorothioate at linkages 1-4, mixed Rp/Sp) [d(C*G*C*C*T)], for which the binding result in data set [2] was “binds”.
